# Earlier results in PMC6302113.
# Target: IL-22 (Homo sapiens) (UniProt Q9GZX6)
# UniProt Q9GZX6, sequence (Q9GZX6 34-179): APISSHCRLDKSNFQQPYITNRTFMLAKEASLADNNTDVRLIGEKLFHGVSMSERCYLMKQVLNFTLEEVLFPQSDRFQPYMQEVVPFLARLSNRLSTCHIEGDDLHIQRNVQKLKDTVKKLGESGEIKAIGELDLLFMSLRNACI
substance,measurement,value
IL-22BPi2 (from UniProt Q969J5),Kd,1 pM
